Reference: patent publication US20260007756A1, “COMPOUND AND USE THEREOF” (COHERENT BIOPHARMA (SUZHOU) LIMITED, priority 2022, published 2026)
In brackets after ≈: the same amount, converted by molar mass. Numbered stars: 1 amine (or outer) side, 2 acyl side, 3 side chain; on linkers, the order of the positions; unused ones are H or OH. Square brackets hold non-standard residues; d marks the D form. Side chains are listed from the residue outwards. Peptide text beside a SMILES is read from it. * marks the point of attachment. EuK = O=C(O)CC[C@H](NC(=O)N[C@@H](CCCCN*)C(=O)O)C(=O)O; Pteroyl = Nc1nc2ncc(CNc3ccc(C(=O)*)cc3)nc2c(=O)[nH]1; γGlu = O=C(O)[C@H](CCC(=O)[*:2])N[*:1]; X1 = O=C(Cc1ccc(CN[*:1])cc1)[*:2]; Pra = C#CC[C@H](N)C(=O)O; CO = O=C([*:1])[*:2]

Assays:
Solubility study in PBS = type: physicochemical; conditions: aqueous buffer, thermodynamic from solid; PBS (pH 7.2 to 7.4); read-out: Solubility, concentration
Protocol: The mixture was vortexed for 2 min until the solid was dissolved. The solubility was calculated as: C=m/V, C: concentration, m: sample weight, V: PBS total volume.

MDA-MB-231 = type: cell-based, human; conditions: MDA-MB-231, 72 h, CellTiter-Glo
Excerpt: (§1) Negative and blank controls were set.

22RV1 = type: cell-based, human; conditions: 22RV1, 72 h, CellTiter-Glo
Excerpt: as §1

Plasma stability study 2 = type: in vitro ADME; conditions: mouse plasma, 37° C.
Protocol: • 1) The conjugate compounds were prepared into 1 mg/mL stock solutions with 0.1% TFA-acetonitrile water (1:1); • 2) 10 μL of 1 mg/mL compound stock solution was added into 90 μL of fresh plasma, and the mixture was well mixed by gentle shaking, and transferred to a thermostatic incubator at 37° C. for 0 h, 0.5 h, 1 h, 2 h, 4 h, 6 h, or 24 h of incubation; • 3) at the time points, samples were taken out and 300 μL of methanol solution (containing 10 ng/ml of terfenadine) was added for protein precipitation; • 4) the mixture was centrifuged (13 min, 4° C., 12000 rpm) and the supernatant was collected, and preserved in a −80° C. refrigerator; after collection, the samples were loaded for LC-MS analysis.

## C#CC[C@H](NC(=O)[C@H](CCCCN)NC(=O)[C@H](CC(=O)O)NC(=O)[C@H](CC(=O)O)NC(=O)Cc1ccc(CNC(=O)NCCCC[C@H](NC(=O)N[C@@H](CCC(=O)O)C(=O)O)C(=O)O)cc1)C(=O)N[C@@H](CCCCNC(=O)CC[C@H](NC(=O)c1ccc(NCc2cnc3[nH]c(N)nc(=O)c3n2)cc1)C(=O)O)C(N)=O [CR202W4] ({EuK-CO}-[X1]DDK[Pra]K([γGlu-Pteroyl])-NH2)
Solubility study in PBS
  solubility: 2800 µg/mL (≈ 1.85 mM)

## CC[C@@H]1C(=O)N(C)c2cnc(Nc3ccc(-c4cn([C@H]5CC[C@@H](N(CCOCCC#Cc6cccc7c6CN(C6CCC(=O)NC6=O)C7=O)C(=O)CNC(=O)[C@@H]6CCCN6C(=O)[C@H](CCCNC(N)=O)NC(=O)[C@@H](NC(=O)COCCOCCn6cc(C[C@H](NC(=O)[C@H](CCCCN)NC(=O)[C@H](CC(=O)O)NC(=O)[C@H](CC(=O)O)NC(=O)Cc7ccc(CNC(=O)NCCCC[C@H](NC(=O)N[C@@H](CCC(=O)O)C(=O)O)C(=O)O)cc7)C(=O)N[C@@H](CCCCNC(=O)CC[C@H](NC(=O)c7ccc(NCc8cnc9[nH]c(N)nc(=O)c9n8)cc7)C(=O)O)C(N)=O)nn6)C(C)C)CC5)nn4)cc3OC)nc2N1C1CCCC1 (some centres unmarked) [CR202GQ]
MDA-MB-231
  IC50: 4480 nM
22RV1
  IC50: 3160 nM

## CC[C@@H]1C(=O)N(C)c2cnc(Nc3ccc(-c4cn([C@H]5CC[C@@H](N(CCOCCC#Cc6cccc7c6CN(C6CCC(=O)NC6=O)C7=O)C(=O)OCc6ccc(NC(=O)[C@H](CCCNC(N)=O)NC(=O)[C@@H](NC(=O)OCCOCCNS(=O)(=O)NC(=O)OCCn7cc(C[C@H](NC(=O)[C@H](CCCCN)NC(=O)[C@H](CC(=O)O)NC(=O)[C@H](CC(=O)O)NC(=O)Cc8ccc(CNC(=O)NCCCC[C@H](NC(=O)N[C@@H](CCC(=O)O)C(=O)O)C(=O)O)cc8)C(=O)N[C@@H](CCCCNC(=O)CC[C@H](NC(=O)c8ccc(NCc9cnc%10[nH]c(N)nc(=O)c%10n9)cc8)C(=O)O)C(N)=O)nn7)C(C)C)cc6)CC5)nn4)cc3OC)nc2N1C1CCCC1 (some centres unmarked) [CR202GM]
MDA-MB-231
  IC50: 512 nM
22RV1
  IC50: 287 nM

## CC[C@@H]1C(=O)N(C)c2cnc(Nc3ccc(-c4cn([C@H]5CC[C@@H](N(CCOCCC#Cc6cccc7c6CN(C6CCC(=O)NC6=O)C7=O)C(=O)OC[C@@H](C)SSC[C@H](NC(=O)[C@H](CCCCN)NC(=O)[C@H](CC(=O)O)NC(=O)[C@H](CC(=O)O)NC(=O)Cc6ccc(CNC(=O)NCCCC[C@H](NC(=O)N[C@@H](CCC(=O)O)C(=O)O)C(=O)O)cc6)C(=O)N[C@@H](CCCCNC(=O)CC[C@H](NC(=O)c6ccc(NCc7cnc8[nH]c(N)nc(=O)c8n7)cc6)C(=O)O)C(N)=O)CC5)nn4)cc3OC)nc2N1C1CCCC1 (some centres unmarked) [CR202HV]
MDA-MB-231
  IC50: 14.2 nM
22RV1
  IC50: 155 nM

## CC[C@@H]1C(=O)N(C)c2cnc(Nc3ccc(-c4cn([C@H]5CC[C@@H](N(CCOCCC#Cc6cccc7c6CN(C6CCC(=O)NC6=O)C7=O)C(=O)OCc6ccc(NC(=O)[C@H](CCCNC(N)=O)NC(=O)[C@@H](NC(=O)COCCOCCn7cc(C[C@H](NC(=O)[C@H](CCCCN)NC(=O)[C@H](CC(=O)O)NC(=O)[C@H](CC(=O)O)NC(=O)Cc8ccc(CNC(=O)NCCCC[C@H](NC(=O)N[C@@H](CCC(=O)O)C(=O)O)C(=O)O)cc8)C(=O)N[C@@H](CCCCNC(=O)CC[C@H](NC(=O)c8ccc(NCc9cnc%10[nH]c(N)nc(=O)c%10n9)cc8)C(=O)O)C(N)=O)nn7)C(C)C)c(OC)c6)CC5)nn4)cc3OC)nc2N1C1CCCC1 (some centres unmarked) [CR202FU]
MDA-MB-231
  IC50: 792 nM
22RV1
  IC50: 469 nM

## CC[C@@H]1C(=O)N(C)c2cnc(Nc3ccc(-c4cn([C@H]5CC[C@@H](N(CCOCCC#Cc6cccc7c6CN(C6CCC(=O)NC6=O)C7=O)C(=O)OCc6ccc(NC(=O)[C@H](CC(N)=O)NC(=O)[C@H](CC(N)=O)NC(=O)CNC(=O)COCCOCCn7cc(C[C@H](NC(=O)[C@H](CCCCN)NC(=O)[C@H](CC(=O)O)NC(=O)[C@H](CC(=O)O)NC(=O)Cc8ccc(CNC(=O)NCCCC[C@H](NC(=O)N[C@@H](CCC(=O)O)C(=O)O)C(=O)O)cc8)C(=O)N[C@@H](CCCCNC(=O)CC[C@H](NC(=O)c8ccc(NCc9cnc%10[nH]c(N)nc(=O)c%10n9)cc8)C(=O)O)C(N)=O)nn7)cc6)CC5)nn4)cc3OC)nc2N1C1CCCC1 (some centres unmarked) [CR202V9]
Solubility study in PBS
  solubility: 15800 µg/mL (≈ 5.26 mM)
Plasma stability study 2; 0 h
  CR20274 release rate (actual release/theoretical release): 0.11%
  Residual rate of principal component: 99.22%
Plasma stability study 2; 0.5 h
  CR20274 release rate (actual release/theoretical release): 0.17%
Plasma stability study 2; 0.5 h, read-out: Residual rate of principal component
  remaining at 0.5 h, 100 μg/mL: 99.8%
Plasma stability study 2; 1 h
  CR20274 release rate (actual release/theoretical release): 0.22%
Plasma stability study 2; 1 h, read-out: Residual rate of principal component
  remaining at 1 h, 100 μg/mL: 98.4%
Plasma stability study 2; 2 h
  CR20274 release rate (actual release/theoretical release): 0.21%
Plasma stability study 2; 2 h, read-out: Residual rate of principal component
  remaining at 2 h, 100 μg/mL: 89.6%
Plasma stability study 2; 4 h
  CR20274 release rate (actual release/theoretical release): 0.25%
Plasma stability study 2; 4 h, read-out: Residual rate of principal component
  remaining at 4 h, 100 μg/mL: 67.1%
Plasma stability study 2; 6 h
  CR20274 release rate (actual release/theoretical release): 0.30%
Plasma stability study 2; 6 h, read-out: Residual rate of principal component
  remaining at 6 h, 100 μg/mL: 66.3%
Plasma stability study 2; 24 h
  CR20274 release rate (actual release/theoretical release): 1.46%
  Residual rate of principal component: 0.62%

## CC[C@@H]1C(=O)N(C)c2cnc(Nc3ccc(-c4cn([C@H]5CC[C@@H](N(CCOCCC#Cc6cccc7c6CN(C6CCC(=O)NC6=O)C7=O)C(=O)NCCNC(=O)OCc6ccc(NC(=O)[C@H](CCCNC(N)=O)NC(=O)[C@@H](NC(=O)COCCOCCn7cc(C[C@H](NC(=O)[C@H](CCCCN)NC(=O)[C@H](CC(=O)O)NC(=O)[C@H](CC(=O)O)NC(=O)Cc8ccc(CNC(=O)NCCCC[C@H](NC(=O)N[C@@H](CCC(=O)O)C(=O)O)C(=O)O)cc8)C(=O)N[C@@H](CCCCNC(=O)CC[C@H](NC(=O)c8ccc(NCc9cnc%10[nH]c(N)nc(=O)c%10n9)cc8)C(=O)O)C(N)=O)nn7)C(C)C)cc6)CC5)nn4)cc3OC)nc2N1C1CCCC1 (some centres unmarked) [CR202HJ]
MDA-MB-231
  IC50: 3650 nM
22RV1
  IC50: 1220 nM
